Laboratory results taken from article PMC13623948, “Steric Gating Contributes to the Preferential Ubiquitin Charging of BIRC6 by UBA6 versus UBA1” (Nature Communications, 2026).

Target: T1, human UBA6 (full-length, amino acid residues 1-1052) (human, UniProt A0AVT1 1-1052)
T1 construct: UBA6, human, Uniprot entry A0AVT1, full-length, residues 1-1052; The cloning methods name only the N-terminal 3×FLAG tag; the BLI methods say that His-tagged ligands were captured on anti-Penta-His sensors; also called UBA6^WT
T1 sequence (looked up): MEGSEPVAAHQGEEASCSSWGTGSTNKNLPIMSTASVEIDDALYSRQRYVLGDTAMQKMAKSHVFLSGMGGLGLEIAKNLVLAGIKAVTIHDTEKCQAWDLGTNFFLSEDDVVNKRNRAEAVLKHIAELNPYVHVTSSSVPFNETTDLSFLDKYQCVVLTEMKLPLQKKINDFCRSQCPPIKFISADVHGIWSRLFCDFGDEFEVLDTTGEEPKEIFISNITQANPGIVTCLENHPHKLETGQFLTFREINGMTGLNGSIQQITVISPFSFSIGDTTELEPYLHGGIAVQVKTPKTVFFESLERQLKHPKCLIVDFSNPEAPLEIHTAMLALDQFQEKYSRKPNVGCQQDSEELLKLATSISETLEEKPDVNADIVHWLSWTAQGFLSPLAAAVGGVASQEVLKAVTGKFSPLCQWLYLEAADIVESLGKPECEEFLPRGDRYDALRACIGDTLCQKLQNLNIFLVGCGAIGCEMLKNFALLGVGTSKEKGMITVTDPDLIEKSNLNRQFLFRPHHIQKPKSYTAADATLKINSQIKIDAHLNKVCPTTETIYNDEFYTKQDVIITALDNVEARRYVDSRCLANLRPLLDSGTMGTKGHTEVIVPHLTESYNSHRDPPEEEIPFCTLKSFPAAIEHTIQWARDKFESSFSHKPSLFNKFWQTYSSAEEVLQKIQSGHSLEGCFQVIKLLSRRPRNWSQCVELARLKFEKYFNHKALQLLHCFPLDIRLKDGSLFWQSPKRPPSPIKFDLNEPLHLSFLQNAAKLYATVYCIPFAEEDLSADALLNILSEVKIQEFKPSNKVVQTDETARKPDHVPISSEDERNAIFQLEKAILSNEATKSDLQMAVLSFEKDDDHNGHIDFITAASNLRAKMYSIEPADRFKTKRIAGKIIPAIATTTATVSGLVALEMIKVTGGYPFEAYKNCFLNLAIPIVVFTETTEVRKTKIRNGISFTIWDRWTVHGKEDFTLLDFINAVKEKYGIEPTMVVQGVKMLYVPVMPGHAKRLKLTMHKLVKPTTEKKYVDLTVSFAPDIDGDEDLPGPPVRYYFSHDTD
Test: BLI; His-tagged E1 ligands on Anti-Penta-His (His1K) biosensors; analyte BIRC6^UBC or BIRC6^(UBCΔinsertion loop) at 40-3240 nM; 50 mM HEPES, pH 7.4, 150 mM NaCl, 0.05% Tween-20, 10 mM imidazole; 25 °C; steady-state 1:1 fit
Details: both partners purified

B1: UBC domain of BIRC6 (residues 4520-4857) (domain or fragment)
chain: not shown
notes: BIRC6 UBC domain, human, Uniprot entry Q9NR09, residues 4520-4857; also called BIRC6^UBC; WT BIRC6^UBC; source: E. coli BL21 (DE3), purified (Ni-NTA, HRV 3C cleavage, SEC); not shown: His6, N-terminal, cleaved
  Kd: 4.82 µM
